From US20250163127A1 come the findings set out here.

Test [1] concerns the target CD28, full-length, expressed on transfected cells (Homo sapiens (Human)) (UniProt P10747). Description: flow cytometry, cells expressing target.
Test [2] has as its target CTLA-4, full-length, expressed on transfected cells (Homo sapiens (Human)) (UniProt P16410). Nature of the test: flow cytometry, cells expressing target.
Test [3] concerns the target ICOS, full-length, expressed on transfected cells (Homo sapiens (Human)) (UniProt Q9Y6W8). Nature of the test: flow cytometry, cells expressing target.
In test [4] the target is human CTLA-4 (human). Description: flow cytometry, CHO/CTLA-4 cells, 100 nM, anti-Flag.
Chain of human CTLA-4 (human) (chain, as listed by the source): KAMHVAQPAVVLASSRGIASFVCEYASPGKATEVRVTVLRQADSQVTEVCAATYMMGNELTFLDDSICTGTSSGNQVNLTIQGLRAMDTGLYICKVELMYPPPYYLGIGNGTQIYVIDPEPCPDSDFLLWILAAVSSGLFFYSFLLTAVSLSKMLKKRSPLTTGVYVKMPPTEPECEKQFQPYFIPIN
In test [5] the target is human PD-1 (human) (UniProt Q15116). Nature of the test: flow cytometry, CHO/PD-1 cells, 100 nM, anti-Flag.
Chain of human PD-1 (human) (Q15116 25-288): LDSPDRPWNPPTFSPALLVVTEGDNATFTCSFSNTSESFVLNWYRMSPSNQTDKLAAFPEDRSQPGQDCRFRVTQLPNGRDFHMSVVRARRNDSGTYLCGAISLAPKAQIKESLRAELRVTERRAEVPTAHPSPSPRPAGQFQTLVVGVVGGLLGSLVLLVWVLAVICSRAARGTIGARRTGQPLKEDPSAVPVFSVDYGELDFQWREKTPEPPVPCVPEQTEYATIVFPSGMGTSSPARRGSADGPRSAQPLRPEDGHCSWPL
Test [6] deals with PD-L1 (human). Description: flow cytometry on HEK293 cells transfected with PD-L1.
Chain of PD-L1 (human) (chain, as listed by the source): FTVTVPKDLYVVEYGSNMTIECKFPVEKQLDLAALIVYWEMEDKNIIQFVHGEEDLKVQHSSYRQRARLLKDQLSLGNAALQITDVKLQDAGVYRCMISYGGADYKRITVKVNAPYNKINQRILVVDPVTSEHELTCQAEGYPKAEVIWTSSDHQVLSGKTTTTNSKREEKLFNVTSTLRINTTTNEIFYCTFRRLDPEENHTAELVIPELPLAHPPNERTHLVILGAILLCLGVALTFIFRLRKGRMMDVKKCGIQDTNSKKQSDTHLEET
Test [7] addresses CD28 (human) (UniProt P10747). Description: flow cytometry on HEK293 cells transfected with CD28.
The target in test [8] is CTLA-4 (human). Nature of the test: flow cytometry on HEK293 cells transfected with CTLA4.
The target in test [9] is T1, TIGIT (human) (UniProt Q495A1).
T1 sequence: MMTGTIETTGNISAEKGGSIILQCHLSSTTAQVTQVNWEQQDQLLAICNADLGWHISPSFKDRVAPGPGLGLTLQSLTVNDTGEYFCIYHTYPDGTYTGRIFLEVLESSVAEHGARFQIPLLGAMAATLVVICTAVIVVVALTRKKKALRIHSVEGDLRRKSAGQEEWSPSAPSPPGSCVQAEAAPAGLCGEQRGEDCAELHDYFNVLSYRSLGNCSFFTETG
Description: flow cytometry, transfected HEK293.

Test [10] addresses T2, CD226 (human) (UniProt Q15762).
T2 sequence: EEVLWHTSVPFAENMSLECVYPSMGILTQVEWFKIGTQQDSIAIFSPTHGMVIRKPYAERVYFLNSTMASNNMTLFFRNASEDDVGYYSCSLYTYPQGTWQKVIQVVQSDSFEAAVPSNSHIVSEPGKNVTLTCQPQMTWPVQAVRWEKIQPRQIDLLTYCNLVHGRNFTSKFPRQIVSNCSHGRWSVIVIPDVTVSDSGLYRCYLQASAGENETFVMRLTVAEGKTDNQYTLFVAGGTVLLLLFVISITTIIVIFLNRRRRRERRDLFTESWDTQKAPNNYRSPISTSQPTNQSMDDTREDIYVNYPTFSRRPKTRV
Description: flow cytometry, transfected HEK293.

Test [11] concerns the target CD112R (human) (UniProt Q6DKI7). Description: flow cytometry, transfected HEK293.
In test [12] the target is T3, CD96 (human) (UniProt P40200).
T3 sequence: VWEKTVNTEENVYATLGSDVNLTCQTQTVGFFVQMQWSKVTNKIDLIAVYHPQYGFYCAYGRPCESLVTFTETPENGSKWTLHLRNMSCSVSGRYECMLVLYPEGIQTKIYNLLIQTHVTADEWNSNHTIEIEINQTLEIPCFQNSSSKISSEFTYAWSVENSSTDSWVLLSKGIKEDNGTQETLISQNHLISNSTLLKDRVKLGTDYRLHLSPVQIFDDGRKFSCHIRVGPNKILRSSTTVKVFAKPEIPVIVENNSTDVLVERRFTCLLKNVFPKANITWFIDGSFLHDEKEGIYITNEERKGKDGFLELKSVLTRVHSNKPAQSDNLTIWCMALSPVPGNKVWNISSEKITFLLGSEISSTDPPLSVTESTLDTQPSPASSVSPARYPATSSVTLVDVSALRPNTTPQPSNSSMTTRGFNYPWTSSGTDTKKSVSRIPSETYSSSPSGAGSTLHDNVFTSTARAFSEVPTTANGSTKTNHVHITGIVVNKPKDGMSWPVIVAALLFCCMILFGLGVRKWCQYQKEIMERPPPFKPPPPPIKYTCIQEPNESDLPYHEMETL
Nature of the test: flow cytometry, transfected HEK293.

Test [13] has as its target human PD-1 (human) (UniProt Q15116).
Test [14] addresses T1, TIGIT (human). Nature of the test: flow cytometry, TIGIT-transfected Expi293 cells.
The target in test [15] is T2, CD226 (human). Nature of the test: flow cytometry, CD226-transfected Expi293 cells.
Test [16] addresses T3, CD96 (human). Nature of the test: flow cytometry, CD96-transfected Expi293 cells.
Test [17] concerns the target CD28 (human) (UniProt P10747). Nature of the test: flow cytometry, Jurkat cells (endogenous CD28), 100 nM, anti-Flag.
Test [18] has as its target T1, TIGIT (human). Description: flow cytometry on transfected HEK293 cells, 100 nM.
Test [19] concerns the target human PD-1 (human) (UniProt Q15116). Nature of the test: flow cytometry, cells expressing PD-1, 20 nM.
The target in test [20] is CD80 (human). Nature of the test: flow cytometry, cells expressing CD80, 20 nM.
Chain of CD80 (human) (chain, as listed by the source): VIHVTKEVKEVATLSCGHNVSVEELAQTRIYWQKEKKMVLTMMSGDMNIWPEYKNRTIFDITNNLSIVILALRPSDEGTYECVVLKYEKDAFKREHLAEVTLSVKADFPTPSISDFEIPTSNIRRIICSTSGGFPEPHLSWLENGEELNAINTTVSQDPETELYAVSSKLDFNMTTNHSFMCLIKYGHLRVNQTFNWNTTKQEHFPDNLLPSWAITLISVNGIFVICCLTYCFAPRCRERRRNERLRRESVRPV
In test [21] the target is PD-1-Fc (human) (UniProt Q15116). Nature of the test: ForteBio Octet, PD-1 on anti-human capture sensor, 100 nM.
Chain of PD-1-Fc (human) (Q15116 25-167 limits assumed): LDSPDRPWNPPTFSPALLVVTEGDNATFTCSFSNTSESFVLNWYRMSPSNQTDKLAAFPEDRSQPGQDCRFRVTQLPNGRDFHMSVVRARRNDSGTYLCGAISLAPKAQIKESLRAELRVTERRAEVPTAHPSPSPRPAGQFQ

Chain of Wild type CD155 IgV-Fc (Fc fusion) (chain): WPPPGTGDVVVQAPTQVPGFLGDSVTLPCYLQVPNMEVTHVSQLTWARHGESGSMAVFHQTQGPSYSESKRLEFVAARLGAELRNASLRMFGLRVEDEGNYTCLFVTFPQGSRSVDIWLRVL
Chain of WT CD80 IgV-Fc (inert) (Fc fusion) (chain): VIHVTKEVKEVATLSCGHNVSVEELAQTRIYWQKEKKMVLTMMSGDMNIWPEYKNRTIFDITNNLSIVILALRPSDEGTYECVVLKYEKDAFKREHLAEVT
Chain of WT CD112 IgV (Fc fusion) (chain): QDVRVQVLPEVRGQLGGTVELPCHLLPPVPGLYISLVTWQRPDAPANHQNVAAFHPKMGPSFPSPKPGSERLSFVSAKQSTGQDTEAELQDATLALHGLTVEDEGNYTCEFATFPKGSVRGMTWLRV
Chain of Wild-type PD-L1 (IgV, SEQ ID NO 309) (ligand) (chain): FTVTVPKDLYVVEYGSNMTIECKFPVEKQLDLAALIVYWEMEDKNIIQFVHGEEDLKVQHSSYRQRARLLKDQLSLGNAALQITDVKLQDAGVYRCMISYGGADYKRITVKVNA
Chain of ICOS, full-length, expressed on transfected cells (Homo sapiens (Human)) (Q9Y6W8 21-199 limits assumed): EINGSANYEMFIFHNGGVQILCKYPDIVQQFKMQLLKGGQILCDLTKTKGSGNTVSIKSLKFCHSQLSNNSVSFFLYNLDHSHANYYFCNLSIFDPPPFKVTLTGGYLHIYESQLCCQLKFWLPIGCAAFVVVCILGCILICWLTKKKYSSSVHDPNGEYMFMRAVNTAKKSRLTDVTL
Chain of CD112R (human) (Q6DKI7 whole entry): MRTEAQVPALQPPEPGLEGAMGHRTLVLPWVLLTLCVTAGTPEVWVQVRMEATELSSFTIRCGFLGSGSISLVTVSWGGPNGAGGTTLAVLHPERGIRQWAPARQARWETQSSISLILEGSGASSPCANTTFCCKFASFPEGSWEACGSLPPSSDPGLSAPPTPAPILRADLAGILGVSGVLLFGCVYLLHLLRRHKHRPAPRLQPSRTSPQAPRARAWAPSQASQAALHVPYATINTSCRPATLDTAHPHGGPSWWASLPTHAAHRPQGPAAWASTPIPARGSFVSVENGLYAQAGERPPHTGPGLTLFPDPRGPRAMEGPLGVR
Chain of Wildtype CD112-IgV Fc (Fc fusion) (chain): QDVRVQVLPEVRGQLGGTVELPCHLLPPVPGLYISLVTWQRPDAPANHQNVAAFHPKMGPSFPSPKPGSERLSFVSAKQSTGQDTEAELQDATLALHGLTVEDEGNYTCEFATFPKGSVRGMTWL
Chain of WT CD80 ECD-Fc (Fc fusion) (chain): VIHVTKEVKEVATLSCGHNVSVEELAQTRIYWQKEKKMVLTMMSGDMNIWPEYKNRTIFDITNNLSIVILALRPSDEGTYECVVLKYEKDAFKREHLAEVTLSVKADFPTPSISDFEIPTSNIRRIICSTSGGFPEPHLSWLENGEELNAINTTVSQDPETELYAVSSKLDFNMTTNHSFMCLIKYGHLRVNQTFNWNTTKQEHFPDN
Chain of Wild Type PD-L2 IgV Fc fusion (chain): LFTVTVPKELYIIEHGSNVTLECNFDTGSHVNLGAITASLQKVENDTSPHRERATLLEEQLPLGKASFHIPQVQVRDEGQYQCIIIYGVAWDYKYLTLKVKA

Take “ICOSL ECD-Fc V11E/N30D/N52H/N57Y/H94E/L96I/L98F/N194D/V210A/I218T (Fc fusion)”: the MFI in test [1] amounted to 120000 MFI; in test [2], 62800 MFI; in [3] it was 180000 MFI. In addition, the values for the parental ratio in [1] and in test [2] were 26.8 ratio to WT and 3.55 ratio to WT, respectively.

As for “PD-L2 1417 (monomeric variant PD-L2 IgV H15Q/T47A/K65R/S67L/Q82R/V89D) (ligand)”, the MFI in [4] was determined as 152; in test [5], 26200.

In [6], Variant CD80 S44P/A71D Fc fusion returned an MFI at 22.2 nM of 6310 MFI.

In [7], WT CD80 ECD-Fc (Fc fusion) came in with an MFI at 66.6 nM of 24800 MFI.

For the substance WT CD80 IgV-Fc (inert) (Fc fusion), the MFI at 22.2 nM in [6] stood at 1770 MFI. In addition, the results for the MFI at 66.6 nM in [7] and in test [8] were 1620 MFI and 20700 MFI, respectively.

As to WT CD112 IgV (Fc fusion), the MFI at 20 nM in [9] worked out at 34900; in test [10], 10800; in [11], 1660; in [12], 2500.

With Wild Type PD-L2 IgV Fc fusion, the IFN gamma levels pg/mL (MLR) in test [13] turned out to be 1380 pg/mL.

As to Wild type CD155 IgV-Fc (Fc fusion), the figures for the MFI in test [14], in test [15] and in test [16] were 2720, 3720 and 3080, respectively.

In the case of “Wild-type PD-L1 (IgV, SEQ ID NO 309) (ligand)”, the MFI in test [4] stood at 97.4; in test [17] it was 716.

As to Wildtype CD112-IgV Fc (Fc fusion), in test [18], the MFI at 100 nM was found to be 82400 MFI.

In turn, “variant CD112 IgV-Fc Y33H, A112V (Fc fusion)” returned an MFI at 100 nM in test [18] of 20600 MFI.

The substance “variant PD-L1 G15A/I36T/V129D/R195G Fc fusion” gave an MFI at 20 nM in test [19] of 125 MFI.

Consider “variant PD-L1 I36T/M97L/A103V/Q155H Fc fusion”, for which the results for the MFI at 20 nM in test [20] and in test [19] were 128 MFI and 120 MFI, respectively.

Regarding variant PD-L1 V129D/H202Q Fc fusion, the MFI at 20 nM in [19] was 2000 MFI.

In turn, “variant PD-L2 IgV H15Q/T47A/H69L/Q82R/V89D Fc fusion” had an IFN gamma levels pg/mL (MLR) in test [13] of 1730 pg/mL.

Regarding “variant PD-L2 IgV H15Q/T47A/K65R/S67L/Q82R/V89D Fc fusion”, in test [13], the IFN gamma levels pg/mL (MLR) turned out to be 1340 pg/mL.

For “variant PD-L2 IgV I13V/H15Q/R76G/I85F Fc fusion”, the Fortebio Response Units (Response Units) in test [21] was -0.04. This substance displayed an IFN gamma levels pg/mL (MLR) in [13] of 1530 pg/mL.
